Test results taken from patent US20240343803A1 (SHANDONG SIMCERE BIOPHARMACEUTICAL, published 2024).

T1: human PVRIG on FlpinCHO-PVRIG cells (human, UniProt Q6DKI7 41-326)
T1 construct: whole, on cells
T1 sequence (looked up): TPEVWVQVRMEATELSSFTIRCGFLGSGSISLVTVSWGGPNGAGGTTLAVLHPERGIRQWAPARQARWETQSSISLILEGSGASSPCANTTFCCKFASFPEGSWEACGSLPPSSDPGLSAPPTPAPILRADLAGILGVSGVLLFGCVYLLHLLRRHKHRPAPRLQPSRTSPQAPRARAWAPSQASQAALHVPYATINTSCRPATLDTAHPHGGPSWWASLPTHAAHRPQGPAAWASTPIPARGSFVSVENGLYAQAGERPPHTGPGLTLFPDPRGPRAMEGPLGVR

T2: human PVRIG-his (AcroBiosystems, Cat NO. PVG-H52H4) (human, UniProt Q6DKI7 41-171, limits assumed)
T2 construct: Bought reagent; also called human PVRIG protein
T2 sequence (looked up): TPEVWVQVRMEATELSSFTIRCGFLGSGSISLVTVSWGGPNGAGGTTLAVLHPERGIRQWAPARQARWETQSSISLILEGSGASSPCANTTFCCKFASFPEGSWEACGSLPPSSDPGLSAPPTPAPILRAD

T3: cynomolgus monkey PVRIG on FlpinCHO-cyno PVRIG cells (cynomolgus monkey, UniProt A0A2K5WVV8 41-322)
T3 construct: whole, on cells
T3 sequence: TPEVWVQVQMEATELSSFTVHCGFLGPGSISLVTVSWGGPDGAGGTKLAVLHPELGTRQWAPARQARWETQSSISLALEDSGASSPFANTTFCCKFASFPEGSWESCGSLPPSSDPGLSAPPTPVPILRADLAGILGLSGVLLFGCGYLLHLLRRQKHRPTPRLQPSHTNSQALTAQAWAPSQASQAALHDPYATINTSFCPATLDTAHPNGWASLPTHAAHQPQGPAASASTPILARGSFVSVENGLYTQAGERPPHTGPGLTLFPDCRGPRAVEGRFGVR

T4: cynomolgus monkey PVRIG (Novoprotein, Cat NO. C09B) (cynomolgus monkey, UniProt A0A2K5WVV8 41-171)
T4 construct: Bought reagent; also called cynomolgus monkey PVRIG protein
T4 sequence: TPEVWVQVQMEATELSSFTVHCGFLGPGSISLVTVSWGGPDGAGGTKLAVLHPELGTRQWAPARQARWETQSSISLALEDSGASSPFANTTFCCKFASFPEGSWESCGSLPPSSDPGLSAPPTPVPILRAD


What was measured:
[1] = biological target: T1, human PVRIG on FlpinCHO-PVRIG cells; assay: FACS, FlpinCHO-PVRIG cells; AUC of MFI curve relative to COM701-hIgG1
Protocol: (§1) The Ham's F12 (Gibico, 21127-022) complete medium containing 10% FBS was then added to terminate the digestion and acquire cell suspension. After counting with a cell counter (Beckman Coulter, Vi-CELL), an appropriate amount of cell suspension was centrifuged at 350×g to remove the supernatant, washed twice with PBS, stained with Zombie violet (Biolegend, 423114) and incubated at room temperature for 20 minutes. After incubation, the cells were added with staining buffer (2% FBS+PBS) to stop staining, centrifuged at 350×g to remove the supernatant, washed twice and resuspended with staining buffer to a density of 2×10⁶ cells/mL. The cells were plated into a 96-well plate (50 μL of cell suspension per well) for further use. The antibodies were diluted from the highest concentration of 46 nM (two-fold concentration) with staining buffer by 3.3-fold serial dilution. The diluted antibodies were added to the well containing 50 μL of cell suspension. The plate was placed on a microplate shaker at 400 rpm for 1 minute to fully mix the antibodies and cells, and then incubated at 4° C. for 30 minutes. After the incubation, the cells were washed twice with staining buffer (200 μL per well) and centrifuged at 350×g for 5 minutes to discard the supernatant. The PE goat anti-human IgG Fc antibody (ebioscience, 12-4998-82) was diluted 250 times with staining buffer, added into the washed wells (100 μL per well), mixed well, and stained at 4° C. for 30 minutes. After staining, the cells were washed twice with staining buffer, finally resuspended with 200 μL staining buffer and analyzed by flow cytometry (BD, Canto II). The stronger the signal, the stronger the ability of the antibodies binds to PVRIG. An antibody binding curve was drawn with concentration of antibodies as the abscissa and the corresponding Mean Fluorescence Intensity (MFI) as the ordinate. The AUC value of the curve was calculated by using a Four Parameter Logistic Fit (GraphPadPrism9). The stronger the AUC value, the stronger the ability of the antibodies binds to FlpinCHO-PVRIG and FlpinCHO-cyno PVRIG. […] The binding activity of the antibodies was normalized to the positive control COM701-hIgG1 and SRF813-hIgG1.

[2] = biological target: T2, human PVRIG-his (AcroBiosystems, Cat …); assay: ELISA, coated human PVRIG-his
Protocol: (§2) The ELISA plate was pre-coated with 100 μL/well of 0.5 μg/mL human PVRIG-his (AcroBiosystems, Cat NO. PVG-H52H4) or cynomolgus monkey PVRIG (Novoprotein, Cat NO. C09B). […] A HRP substrate, TMB (Thermo, Cat NO. 34029) was added into wells after washing the plate again for color development. After adding a termination solution to terminate the reaction, the absorbance value was read by a microplate reader (MD i3×). An antibody binding curve was drawn with concentration of antibodies as the abscissa and the corresponding OD value as the ordinate. The EC50 value was calculated by using a Four Parameter Logistic Fit (GraphPadPrism9). The smaller the EC50 value, the stronger the ability of the antibodies binds to human or cynomolgus monkey PVRIG. The positive control antibodies are COM701-hIgG1 (Patent No.:US20180244774A1), COM701-hIgG4 (patent No.: US20180244774A1) and SRF813-hIgG1 (Patent No.:US20200040081A1); and the negative control antibodies are anti-HA HcAb-hIgG1 (Chengdu NB Biolab, Cat NO. NBR022), anti-CD38 HcAb-hIgG1 (in-house) and anti-Fluorescein-hIgG1 (in house).

[3] = biological target: T3, cynomolgus monkey PVRIG on …; assay: FACS, FlpinCHO-cyno PVRIG cells; AUC of MFI curve relative to SRF813-hIgG1
Protocol: as §1

[4] = biological target: T3, cynomolgus monkey PVRIG on …; assay: FACS, FlpinCHO-cyno PVRIG cells; AUC of MFI curve relative to COM701-hIgG1
Protocol: as §1

[5] = biological target: T4, cynomolgus monkey PVRIG (Novoprotein, …); assay: ELISA, coated cynomolgus monkey PVRIG
Protocol: as §2

[6] = biological target: T1, human PVRIG on FlpinCHO-PVRIG cells; assay: FACS, FlpinCHO-PVRIG cells; AUC of MFI curve relative to SRF813-hIgG1
Protocol: as §1

Binder | % AUC to COM701-hIgG1 [1] [%] | EC50 [2] [nM] | % AUC to SRF813-hIgG1 [3] [%] | % AUC to COM701-hIgG1 [4] [%] | EC50 [5] [nM] | % AUC to SRF813-hIgG1 [6] [%]
PVRIG-A30 (Fc fusion, Alpaca VHH joined to human IgG1 Fc (VHH-hinge-CH2-CH3); not shown: human IgG1 hinge-CH2-CH3) QVQLVESGGGLVQPGGSLRLSCAASGRTDSMNVMGWFRRAPGKEREFVARIKWNGDTTYTAYADFLKGRFTLYGAVARNRVYLQMNSLQPEDTAVYYCAAGEVSGSSYSPDYGMHYWGKGTLVTVSS | 29.3 | 0.255 | 33.8 | 28.7 | 0.093 | 34.4
PVRIG-A118 (Fc fusion, Alpaca VHH joined to human IgG1 Fc (VHH-hinge-CH2-CH3); not shown: human IgG1 hinge-CH2-CH3) QVQLVESGGGLVQAGGSLRLSCAASETYFDLYVMGWYRQAPGKDRELVATITYTGSIKIVDSVKDRFTISRGDAKNTVSLQMSSLKPEDTAVYFCNADPSGLGRKVYWGQGTQVTVSS | 153 | 0.0513 | 80.4 | 66.4 | 0.0341 | 232
PVRIG-A35 (Fc fusion, Alpaca VHH joined to human IgG1 Fc (VHH-hinge-CH2-CH3); not shown: human IgG1 hinge-CH2-CH3) EVQVVESGGGLVQSGGSLRLSCAASGRTRSMYVMGWFRQAPGKEREFVGRIKWSGDTTYTSYADFVKGRFTLYGNQARNTVYLQMNSLKPEDTAVYYCNGRSRFNVINAWGTGTLVTVAS | 122 | 0.0543 | 25.3 | 19.3 | 0.0288 | 134
PVRIG-A113 (Fc fusion, Alpaca VHH joined to human IgG1 Fc (VHH-hinge-CH2-CH3); not shown: human IgG1 hinge-CH2-CH3) QLQLVESGGGLVQSGGSLRLSCAASGRTRSMYVMGWFRQAPGKEREFVGRIKWSGDTTYTSYADFVKGRFTLYGNQARNTVYLQMNSLKPEDTAVYYCAALPSDYDYRAASYGVDYWGKGTLVTVSS | 42.4 | 0.092 | 52.7 | 38.6 | 0.0443 | 57.4
PVRIG-A105 (Fc fusion, Alpaca VHH joined to human IgG1 Fc (VHH-hinge-CH2-CH3); not shown: human IgG1 hinge-CH2-CH3) EVQLVESGGGLVQAGGSLRLSCAASGRTFDRHTMTWFRQAPGKEREFVATASRIPGDTYYSHSVKGRFTISRDNAKNTVYLQLNNLKPEDTAVYYCAATSAYCSEVDCYEKGSWYDNWGQGIQVTVSS | 123 | 0.0571 | 157 | 122 | 0.0192 | 162
PVRIG-A50 (Fc fusion, Alpaca VHH joined to human IgG1 Fc (VHH-hinge-CH2-CH3); not shown: human IgG1 hinge-CH2-CH3) EVQLVESGGGLVQPGGSLRLSCAASGFTFSYYDMSWVRQAPGKGLEWVSTINSNGGRTSYVDSVKGRFTISRDNTKNTLYLQMNSLKPEDTAVYYCVEGDPHNFGLENLSLRDFGSWGQGTQVTVSS | 89.5 | 0.196 | 69.7 | 59.3 | 0.0534 | 115
PVRIG-A117 (Fc fusion, Alpaca VHH joined to human IgG1 Fc (VHH-hinge-CH2-CH3); not shown: human IgG1 hinge-CH2-CH3) EVQVVESGGGLVQAGGSLRLSCTASEHIYDLYIMGWYRQAPGKDRELVATITYTGSIYIADSVKDRFTISRGNAKNTVSLQMSGLKPEDTAVYYCNADPSGLGRKLYWGQGTQVTVSS | 133 | 0.0528 | 174 | 128 | 0.0418 | 181
PVRIG-A15 (Fc fusion, Alpaca VHH joined to human IgG1 Fc (VHH-hinge-CH2-CH3); not shown: human IgG1 hinge-CH2-CH3) QVQLVESGGGLVQAGGSLRLSCVASGRTFSANTMAWFRQAPGKEREFVAYTRWTDDNTDYASYADFVKGRFTAFRDNTRNTMYLQMNRLRPEDTAVYYCAAATTRGTYYSAGDYNSWGQGTQVTVSS | 36.3 | 0.208 | 29.1 | 24.8 | 0.129 | 42.7
PVRIG-A75 (Fc fusion, Alpaca VHH joined to human IgG1 Fc (VHH-hinge-CH2-CH3); not shown: human IgG1 hinge-CH2-CH3) QLQLVESGGGLVQSGGSLRLSCAASGRTRSMYVMGWFRQAPGKEREFVGRIKWSGDTTYTSYADFVKGRFTLYGNQARNTVYLQMNSLKPEDTAVYSCAASKFPVSGVPEHYDYWGQGTQVTVSS | 50.6 | 0.0621 | 62.4 | 47.6 | 0.0288 | 54.5
PVRIG-A60 (Fc fusion, Alpaca VHH joined to human IgG1 Fc (VHH-hinge-CH2-CH3); not shown: human IgG1 hinge-CH2-CH3) QVQLVESGGGLVQSGGSLRLSCAASGRTRSMYVMGWFRQAPGKEREFVGRIKWSGDTTYTSYADFVKGRFTLYGNQARNTVYLQMNSLKPEDAAVYYCNLRRLDGVNYWGKGTLVTVSS | 63.3 | 0.0557 | 82.9 | 63.4 | 0.0343 | 68.6
